One molecule from patent publication US20120077731A1 (Ablynx, published 2012) can be followed below.

The target of experiment [1] is T1, Human soluble IL-6R (human, UniProt P08887 20-358).
T1 construct: Soluble recombinant form; biotinylated in some assays; also called hIL-6R; human IL-6R
T1 sequence (looked up): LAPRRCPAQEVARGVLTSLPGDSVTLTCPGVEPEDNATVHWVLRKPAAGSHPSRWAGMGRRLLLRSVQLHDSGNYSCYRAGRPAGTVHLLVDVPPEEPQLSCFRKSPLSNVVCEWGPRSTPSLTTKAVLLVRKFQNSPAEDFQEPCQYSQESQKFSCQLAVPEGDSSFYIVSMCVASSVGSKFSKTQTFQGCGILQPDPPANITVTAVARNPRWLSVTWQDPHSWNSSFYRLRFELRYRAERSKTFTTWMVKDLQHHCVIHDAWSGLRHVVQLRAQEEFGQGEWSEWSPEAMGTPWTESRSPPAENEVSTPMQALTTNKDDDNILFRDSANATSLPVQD
The experiment can be described thus: Biacore T100. (Surface plasmon resonance follows binding to a sensor surface in real time, without labels.)

Experiment [2] has as its target T2, Human membrane IL-6R on cells (human, UniProt P08887 20-468).
T2 sequence (looked up): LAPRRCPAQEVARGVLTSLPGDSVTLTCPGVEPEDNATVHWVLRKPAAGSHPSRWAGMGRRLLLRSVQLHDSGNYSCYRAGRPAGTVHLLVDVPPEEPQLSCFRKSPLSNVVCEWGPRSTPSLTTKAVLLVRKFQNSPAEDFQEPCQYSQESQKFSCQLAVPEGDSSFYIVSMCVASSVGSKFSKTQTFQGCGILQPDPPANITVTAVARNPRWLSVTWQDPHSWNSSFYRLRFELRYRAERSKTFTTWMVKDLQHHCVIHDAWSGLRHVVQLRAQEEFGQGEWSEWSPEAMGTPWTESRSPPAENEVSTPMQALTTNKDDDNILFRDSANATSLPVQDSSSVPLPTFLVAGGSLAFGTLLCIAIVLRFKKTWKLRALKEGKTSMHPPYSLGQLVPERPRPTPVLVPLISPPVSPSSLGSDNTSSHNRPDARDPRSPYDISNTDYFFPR
In words: cell-based or functional assay.

In experiment [3] the target is T3, Human plasma sIL-6R (human, UniProt P08887 20-355, limits assumed).
T3 construct: also called plasma-derived human IL-6R
T3 sequence (looked up): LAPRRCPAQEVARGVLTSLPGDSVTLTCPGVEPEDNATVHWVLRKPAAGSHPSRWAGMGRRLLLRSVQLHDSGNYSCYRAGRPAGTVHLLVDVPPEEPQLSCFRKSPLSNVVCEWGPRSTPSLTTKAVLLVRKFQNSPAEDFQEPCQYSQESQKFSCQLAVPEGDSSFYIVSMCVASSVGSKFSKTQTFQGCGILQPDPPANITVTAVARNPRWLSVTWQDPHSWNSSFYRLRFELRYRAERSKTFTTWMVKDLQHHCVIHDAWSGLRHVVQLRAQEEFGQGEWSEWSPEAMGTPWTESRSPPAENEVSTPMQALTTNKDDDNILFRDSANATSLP
In words: plasma potency ELISA, human plasma. Background: In an ELISA, binding on a coated surface is turned into a signal by an enzyme label.

For experiment [4], the target named is T1, Human soluble IL-6R. The experiment can be described thus: Biacore T100, IL-6R covalently coupled.
Experiment [5] addresses T1, Human soluble IL-6R. In words: Biacore T100, IL-6R captured via mAb BN-12.
The target in experiment [6] is T2, Human membrane IL-6R on cells. In words: flow cytometry, human PBL, monocytes donor 1. A general note: Flow cytometry measures light scatter and fluorescence of single cells or particles in a stream.
Protocol: (§1) The Nanobodies were incubated in EDTA-treated blood from 2 donors and bound Nanobody was detected by flow cytometry. Lymphocytes, monocytes and granulocytes were gated based on FSC/SSC properties (FIG. 40) and bound Nanobodies were detected in the PE channel.
For experiment [7] the target is unchanged. In words: flow cytometry, human PBL, monocytes donor 2.
Protocol: as §1
The target is the same in experiment [8]. The experiment can be described thus: flow cytometry, human PBL, lymphocytes donor 1.
Protocol: as §1
Experiment [9] has the same target. In words: flow cytometry, human PBL, lymphocytes donor 2.
Protocol: as §1
The target in experiment [10] is T3, Human plasma sIL-6R. The experiment can be described thus: plasma potency ELISA, human plasma, normal IL-6 (EC50).
For experiment [11], the target named is T4, IL-27B (UniProt Q14213 21-229, limits assumed).
T4 sequence (looked up): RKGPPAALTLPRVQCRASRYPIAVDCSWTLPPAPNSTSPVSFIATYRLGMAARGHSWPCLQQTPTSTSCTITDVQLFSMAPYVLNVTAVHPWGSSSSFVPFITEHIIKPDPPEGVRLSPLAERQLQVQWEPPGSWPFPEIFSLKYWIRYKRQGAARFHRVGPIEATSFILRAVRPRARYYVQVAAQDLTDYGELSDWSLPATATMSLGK
The experiment can be described thus: competitive binding ELISA, similar setup (results not shown).

For experiment [12], the target named is T2, Human membrane IL-6R on cells. In words: flow cytometry, CHO cells expressing human IL-6R, 4PL fit.
Experiment [13] deals with T3, Human plasma sIL-6R. The experiment can be described thus: plasma potency assay, human plasma, 2.4 nM IL6; blocked ligand IL-6.
Protocol: All 5 affinity matured Nanobodies and the sequence optimized Nanobody were also tested in a plasma potency assay. […] TMB was used as substrate.
For experiment [14], the target named is T5, Mouse IL-6R (mouse, UniProt P22272 20-364, limits assumed).
T5 construct: also called mouse sIL-6R
T5 sequence (looked up): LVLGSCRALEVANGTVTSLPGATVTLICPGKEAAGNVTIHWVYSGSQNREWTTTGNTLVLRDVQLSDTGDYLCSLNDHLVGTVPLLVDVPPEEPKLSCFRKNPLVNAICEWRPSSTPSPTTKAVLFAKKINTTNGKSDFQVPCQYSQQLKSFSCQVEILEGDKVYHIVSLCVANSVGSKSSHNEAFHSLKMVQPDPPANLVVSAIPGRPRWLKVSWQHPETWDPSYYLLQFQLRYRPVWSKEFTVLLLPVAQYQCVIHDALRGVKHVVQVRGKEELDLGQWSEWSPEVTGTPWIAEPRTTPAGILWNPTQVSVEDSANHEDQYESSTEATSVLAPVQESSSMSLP
The experiment can be described thus: competition ELISA: IL6R20A11 (0.4 nM) pre-incubated with a series of recombinant mouse sIL-6R; free IL6R20A11 captured on biotinylated human sIL-6R on neutravidin.

B1: PMP20A11 (VHH)
VHH: EVQLVESGGGLVQPGGSLRLSCAASGSVFKINVMAWYRQAPGKGRELVAGIISGGSTSYADSVKGRFTISRDNAKNTLYLQMNSLRPEDTAVYYCAFITTESDYDLGRRYWGQGTLVTVSS
notes: also called IL6R20A11; IL6R300; not shown: c-myc and (His)6 tags
With B1, the Kd in experiment [1] was found to be 0.019 nM. Further, the “IC50 (nM), TF-1 proliferation at 5000 IU/mL IL-6” value in experiment [2] came to 15.2 nM. In addition, the “Ratio (high/low) of IC50” value in [3] came out at 1.8. The same molecule returned a koff in experiment [4] of 1.9e-05 s⁻¹. The molecule also registered a kon in experiment [5] of 1e+06 M⁻¹ s⁻¹. The EC50 in experiment [6] was 3.62 nM; in experiment [7] it was 4.78 nM; in experiment [8], 3.65 nM; in [9], 2.92 nM; in [12], 1.4 nM. The values for the IC50 in [10] and in experiment [13] were 0.198 nM and 0.09 nM, respectively. In addition, the binding result in experiment [11] is reported as “no binding (tested: 100 nM)”; in [14], “no binding (tested: about 200 ng/mL (log conc 2.3))”.

What is called Kd is the concentration at which binding is half-saturated. In general, koff refers to the rate constant with which the complex falls apart. The kon is the rate constant with which the complex forms. A low value points to slower complex formation. One may read the EC50 as the concentration giving half of the maximal effect. High values mean a need for much substance, low ones an effect from little substance. A word on the IC50: it is the concentration that gives 50% inhibition. Higher therefore signals lower potency.
